Measurements: the supplement of paper PMC7877785
± gives the uncertainty stated by the source.

Experiment: self-splicing fitness, log relative to wild type (ln ratio); higher = more splicing; Tetrahymena group I intron in knt gene, E. coli kanamycin selection, DiMSum; sequences stand for … in CUCUCU…GGAGGGAAAAGUUAUCAGGCAUGCACCUGGUAGCUAGUCUUUAAACCAAUAGAUUGCAUCGGUUUAAAAGGCAAGACCGUCAAAUUGCGGGAAAGGGGUCAACAGCCGUUCAGUACCAAGUCUCAGGGGAAACUUUGAGAUGGCCUUGCAAAGGGUAUGGUAAUAAGCUGACGGACAUGGUCCUAACCACGCAGCCAAGUCCUAAGUCAACAGAUCUUCUGUUGAUAUGGAUGCAGUUCACAGACUAAAUGUCGGUCGGGGAAGAUGUAUUCUUCUCAUAAGAUAUAGUCGGACCUCUCCUUAAUGGGAGCUAGCGGAUGAAGUGAUGCAACACUGGAGCCGCUGGGAACUAAUUUGUAUGCGAAAGUAUAUUGAUUAGUUUUGGAGUACUCGUGGUCG
In short: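 Pooled colonies went to amplicon sequencing on an Illumina HiSeq 2500 after six replicate transformations. The plates were LB agar with 100 μg/mL carbenicillin, 50 μM IPTG and 0.2% rhamnose, with or without 25 μg/mL kanamycin, incubated overnight at 37°C or 30°C. The E. coli BL21(DE3) library had all eight P1ex-region intron nucleotides randomised, the intron placed in the knt kanamycin-resistance gene on pET-22b(+). DiMSum fitness is the error-weighted combination of replicate fold changes, kanamycin against none, normalised to wild type.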

Sequence | self-splicing fitness (ln) (30 °C) | self-splicing fitness (ln) (37 °C)
ACGUAGCAAUAUUACGGCGA | 0.0177 ± 0.1 | 0.229 ± 0.12
CUCUAGCAAUAUUACGUGGG | -4.79 ± 0.29 | -2.73 ± 0.18
ACAGAGCAAUAUUACGCUUC | -3.96 ± 0.24 | -2.16 ± 0.3
UCGUAGCAAUAUUACGAAUU | -3.74 ± 0.29 | -3.57 ± 0.46
GUCCAGCAAUAUUACGUUUU | -1.19 ± 0.052 | -0.221 ± 0.069
AAAAAGCAAUAUUACGGGCU | -1.55 ± 0.074 | -1.24 ± 0.099
GCUGAGCAAUAUUACGGGCC | -2.39 ± 0.32 | -2.27 ± 0.39
CAACAGCAAUAUUACGAGUC | -3.58 ± 0.2 | -2.58 ± 0.26
CGGAAGCAAUAUUACGAAUC | -3.29 ± 0.3 | -2.46 ± 0.29
CGUGAGCAAUAUUACGCGAC | -2.65 ± 0.35 | -2.21 ± 0.36
UCAGAGCAAUAUUACGCCUA | -2.28 ± 0.25 | -1.61 ± 0.26
AGAGAGCAAUAUUACGGGAG | -2.6 ± 0.4 | –
GAUUAGCAAUAUUACGGCGA | -1.12 ± 0.11 | -0.219 ± 0.11
CUUGAGCAAUAUUACGAUGA | -1.49 ± 0.23 | -2.03 ± 0.28
GAUUAGCAAUAUUACGAGUC | -3.17 ± 0.27 | -2.58 ± 0.33
CAAUAGCAAUAUUACGCAAA | -3.95 ± 0.3 | -2.6 ± 0.27
AAAGAGCAAUAUUACGGUCA | -1.91 ± 0.21 | -1.3 ± 0.17

Sequence | self-splicing fitness (ln) (30 °C) | self-splicing fitness (ln) (37 °C)
GCUAAGCAAUAUUACGCCAC | -1.43 ± 0.35 | -2 ± 0.38
CAUCAGCAAUAUUACGGAUG | -4 ± 0.14 | -2.94 ± 0.14
UUGAAGCAAUAUUACGGCUG | 0.342 ± 0.12 | 0.572 ± 0.12
UGUUAGCAAUAUUACGUACU | 0.199 ± 0.2 | 0.344 ± 0.18
CUUCAGCAAUAUUACGUUAA | -2.84 ± 0.24 | -3.51 ± 0.46
CAGAAGCAAUAUUACGGGAU | -3.18 ± 0.17 | -2.9 ± 0.2
AACCAGCAAUAUUACGGGAA | -1.76 ± 0.073 | -1.01 ± 0.065
UUACAGCAAUAUUACGGACC | -3.25 ± 0.4 | -1.41 ± 0.32
GACUAGCAAUAUUACGACGC | 0.125 ± 0.1 | 0.0388 ± 0.14
AAUAAGCAAUAUUACGCCGC | -2.65 ± 0.46 | -1.49 ± 0.28
GGAAAGCAAUAUUACGCCGC | -2.48 ± 0.41 | -1.89 ± 0.49
GUUCAGCAAUAUUACGCACC | -1.33 ± 0.13 | -0.136 ± 0.21
AGUUAGCAAUAUUACGACUG | -0.637 ± 0.13 | -0.00615 ± 0.18
UCCUAGCAAUAUUACGACAU | -3.634 ± 0.026 | -2.16 ± 0.037
UCUGAGCAAUAUUACGAUUU | -2.65 ± 0.22 | -1.31 ± 0.2
GACUAGCAAUAUUACGGGGA | -2.06 ± 0.11 | -0.995 ± 0.1
